Measured values reported in article PMC10043284.

Target: PANX2EM (residues 1-372 of human pannexin 2 with a C-terminal thermostabilized BRIL) (UniProt Q96RD6)
Experiment: cryo-EM structure; purified PANX2EM (~6 mg/ml) in 20 mM Tris pH 8.0, 150 mM NaCl, 40 uM GDN, with 1 mM Fluorinated Fos-Choline 8; single-particle analysis, C7 symmetry, 3.92 Å; C1 reconstruction aligned with it

**Q.** “PANX2EM (residues 1-372 of human pannexin 2 with a C-terminal thermostabilized BRIL) (from UniProt Q96RD6-3 1-372)” was tested. Which stoichiometry N did it give?
**A.** The stoichiometry N was 7.
